According to publication PMC8461249:

Tests used:
[1] = biological target: TβRII-Fc (TβRII extracellular domain fused to human IgG1 Fc) (human) (UniProt P37173); test: SPR; Biacore 3000, CM5 chip with anti-human Fc mixed with anti-mouse Fc antibodies; TβRII-SE/Fc or TβRII-Fc captured to 100–140 RU; TGF-β1, -β2 or -β3 injected at 0.4 to 30 nM, 50 μl/min, association 90 s, dissociation 300 s (900 s for slow rates); 0.1% surfactant; double referencing; 1:1 binding model; stoichiometry from Rmax and mass ratios
[2] = biological target: TβRII-SE/Fc (TβRII-Soluble Endogenous fused to the human IgG1 Fc domain) (human); test: as above

Chain of TβRII-Fc (TβRII extracellular domain fused to human IgG1 Fc) (human) (P37173 23-166): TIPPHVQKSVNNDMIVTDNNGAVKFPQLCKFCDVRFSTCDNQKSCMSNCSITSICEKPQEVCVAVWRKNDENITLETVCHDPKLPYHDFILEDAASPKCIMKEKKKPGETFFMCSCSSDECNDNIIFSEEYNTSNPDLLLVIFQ

stoichiometry N (TGF-β dimer per bivalent Fc ligand) [1] | stoichiometry N (TGF-β dimer per bivalent Fc ligand) [2] | Substance
1 | 1 | TGF-β1 (ligand)
1 | 1 | TGF-β2 (ligand)
 | 1 | TGF-β3 (ligand)
